In US20130078188:

Experiments:
[1] = system: Cy7-NH-e9-c(S-Peg12) oDPRSFL-r9-c(Cy5)-CONH2 (5, RACPPDPRSFL)
[2] = system: Cy7-NH-e9-c(S-Peg12)oPLGC(Me)AG-r9-c(Cy5)-CONH2 (20, RACPPPLGC(Me)AG)
[3] = system: Cy7-NH-e9-c(S-Peg12) oPPRSFL-r9-c(Cy5)-CONH2 (10, RACPPPPRSFL)
Sequence of Cy7-NH-e9-c(S-Peg12) oPPRSFL-r9-c(Cy5)-CONH2 (10, RACPPPPRSFL) (chain, as listed by the source): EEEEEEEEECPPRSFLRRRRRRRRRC

Sequence of MMP-9 (chain, as listed by the source): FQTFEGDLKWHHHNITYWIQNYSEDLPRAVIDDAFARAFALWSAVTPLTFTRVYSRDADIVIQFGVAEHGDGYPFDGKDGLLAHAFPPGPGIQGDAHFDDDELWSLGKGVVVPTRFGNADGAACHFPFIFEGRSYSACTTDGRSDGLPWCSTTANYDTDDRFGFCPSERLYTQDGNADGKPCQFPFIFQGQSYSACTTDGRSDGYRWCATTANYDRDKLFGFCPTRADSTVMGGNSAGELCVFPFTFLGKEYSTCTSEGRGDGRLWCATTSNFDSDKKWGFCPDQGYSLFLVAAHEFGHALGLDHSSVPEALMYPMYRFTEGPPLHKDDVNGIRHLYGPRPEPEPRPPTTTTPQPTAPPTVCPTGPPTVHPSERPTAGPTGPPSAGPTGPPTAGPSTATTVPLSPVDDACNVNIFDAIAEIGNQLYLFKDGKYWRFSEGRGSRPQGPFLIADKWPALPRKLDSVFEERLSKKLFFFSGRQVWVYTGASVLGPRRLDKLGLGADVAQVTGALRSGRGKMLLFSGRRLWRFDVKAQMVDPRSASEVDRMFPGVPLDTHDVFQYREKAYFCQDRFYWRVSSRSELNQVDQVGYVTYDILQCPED
Sequence of Cy7-NH-e9-c(S-Peg12) oDPRSFL-r9-c(Cy5)-CONH2 (5, RACPPDPRSFL) (chain, as listed by the source): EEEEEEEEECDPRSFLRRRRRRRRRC
Sequence of Cy7-NH-e9-c(S-Peg12)oPLGC(Me)AG-r9-c(Cy5)-CONH2 (20, RACPPPLGC(Me)AG) (chain, as listed by the source): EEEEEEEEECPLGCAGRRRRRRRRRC

## MMP-9
RACPP1
  decrease in Cy7 re-emission on cleavage, in mouse plasma: decreased Cy7 re-emission by ˜4 fold
  extent of cleavage: after (red dashed curve)>95% complete cleavage with MMP-9
  increase in Cy5 emission on cleavage, in mouse plasma: increased Cy5 emission by ˜10 fold
  increase in the ratio of 670/780 nm emissions on cleavage: net 40-fold increase in the ratio of 670/780 nm emissions
RACPP2
Sequence of RACPP2 (chain, as listed by the source): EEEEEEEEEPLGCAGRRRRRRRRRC
  peptide cleavage, tricine SDS-PAGE with Cy5 and Cy7 imaging: All three components (intact uncleaved peptide, r9 and e9 fragments) are well separated and can be seen as distinct bands in the gel
FRET-ACPP 2
  fraction of peptide cleaved, HPLC: 87% of the peptide had been cleaved
  increase of the Cy5 peak, extrapolated to 100% cleavage: the Cy5 peak increases about 7 fold

## factor Xa
[1]
  kcat/Km: 6200 M⁻¹ s⁻¹
[2]
  peptide cleavage, SDS-PAGE with Cy5/Cy7 ratio imaging: not cleaved by any of the pro-coagulation enzymes
[3]
  kcat/Km (cleavage activity): no detectable activity towards RACPPPPRSFL

## thrombin
[1]
  kcat/Km: kcat/km=1.2×10^4 M^-1s^-1
  peptide cleavage, SDS-PAGE with Cy5/Cy7 ratio imaging: cleaved by thrombin in a time dependent manner
[2]
  peptide cleavage, SDS-PAGE with Cy5/Cy7 ratio imaging: not cleaved by any of the pro-coagulation enzymes
[3]
  change in Cy5/Cy7 emission ratio on cleavage, in plasma: 34 fold change in Cy5/Cy7 emission ratio
  decrease in Cy7 re-emission on cleavage, in plasma: 3.8 fold decrease in Cy7 re-emission
  increase in Cy5 emission on cleavage, in plasma: 8.8 fold increase in Cy5 emission
  kcat/Km: 7300 M⁻¹ s⁻¹
  peptide cleavage, SDS-PAGE with Cy5/Cy7 ratio imaging: cleaved by thrombin in a time dependent manner and that RACPPPPRSFL(10) is selective for thrombin
